# Results from patent publication US10011657B2, “Anti-CS1 antibodies and antibody drug conjugates” (AbbVie Biotherapeutics Inc., priority 2014, dated 2018).
# Where two headings read alike, the source gives them in different places.
# B1: Hu27A12: humanized anti-CS1 antibody, VH SEQ ID NO: 24, VL SEQ ID NO: 26 (antibody, V domains shown)
# VH: EVQLVESGGGLVQPGGSLRLSCAASGFTFSDYYMAWVRQAPGKGLEWVAEINYDGSSTYYVDSVKGRFTISRDNAKNSLYLQMNSLRAEDTAVYYCARDRGFYFDYWGQGTTVTVSS
# VL: DVVMTQTPLSLSVTPGQPASISCRSSQSLVHNNGNTYLHWYLQKPGQSPQLLIYKVSNRFSGVPDRFSGSGSGTDFTLKISRVEAEDVGVYFCSQSTHVPPYTFGGGTKVEIK
# B2: Mu12D10 (conjugate)
# VH: EVKLVESEGGLVQPGSSMKLSCTASGFTFSDYFMAWVRQVPEKGLEWVASINYDGNSTYFLDSLKSRFIISRDNAKNILYLQMSSLKSEDTATYYCARDRGFYFDYWGQGTTLTVSS
# VL: DVVMTQTPLSLPVSLGDQASISCRFSQSLVHRNGNTYLHWYLQKPGQSPKLLIYKVSNRFSGVPDRFSGSGSGTDFTLKISRVEAEDLGVYFCSQSTHVRPYTFGGGTKLEIR
# modifications: conjugate
# B3: Mu27A12 (conjugate)
# VH: EVKLVESEGGLVQPGSSMKLSCTASGFTFSDYYMAWVRQVPEKGLEWVAEINYDGSSTYYLDSLKSRFIISRDNAKNILYLQMSNLKSEDTATYYCARDRGFYFDYWGQGTTLTVSS
# VL: DVVMTQTPLSLPVSLGDQASISCRSSQSLVHNNGNTYLHWYLQKPGQSPKLLIYKVSNRFSGVPDRFSGSGSGTDFTLKISRVEAEDLGVYFCSQSTHVPPYTFGGGTKLEIK
# modifications: conjugate
# B4: Mu31D2 (conjugate)
# VH: EVKLVESEGGLVQPGSSMKLSCTASGFTFSDYYMAWVRQVPEKGLEWVADINYDGGSTYYLDSLKSRFIISRDNAKNILCLQMSSLKSEDTATYYCARDRGYYFDYWGQGTTLTVSS
# VL: DVVMTQTPLSLPVSLGDQASISCRSSQSLVHSNGNTYLHWYLQKPGQSPKLLIYKVSNRFSGVPDRFSGSGSGTDFTLKISRVEAEDLGVYFCSQSTHVPPFTFGGGTKLEIK
# modifications: conjugate
# B5: Mu14C11 (conjugate)
# VH: EVKLVESEGGLVQPGSSMKLSCTASGFTFSDYYMAWVRQVPEKGLEWVASINYDGSSTYYLDSLKSRFIISRDNAKNILYLQMSGLKSEDTATYSCARDRGFYFDYWGQGTTLTVSS
# VL: DVVMTQTPLSLPVSLGDQASISCRSSQSLVHRNGNTYLHWYLQKPGQSPKLLIYKVSNRFSGVPDRFSGSGSGTDFTLKISRVEAEDLGVYFCSQSTHVPPYTFGGGTKLEIK
# modifications: conjugate
# B6: Mu34C3: murine anti-CS1 antibody, VH SEQ ID NO: 5, VL SEQ ID NO: 6; in Table 5 tested as MMAE, MMAF, duocarmycin ADCs (antibody, V domains shown)
# VH: EVKLVESEGGLVQPGSSMKLSCTASGFTFSDYYMAWVRQVPEKGLEWVASINYDGSSTYYLDSLKSRFIISRDNAKNILFLQMNSLKSEDTATYYCARDRGYYFDYWGQGTTLTVSS
# VL: DVVMTQTPLSLPVSLGDQASISCRSSQSLVHSNGNTYLHWYLQKPGQSPKLLIYKVSNRFSGVPDRFSGSGSGTDFTLKISRVEAEDLGVYFCSQSTHVPPFTFGGGTKLEIK
# How the values were obtained:
# OPM-2 xenografts = OPM-2 xenografts in effector-cell-negative NSG mice; format: in vivo
# Method: (§1) OPM-2 xenografts were prepared and conducted as previously described. NSG mice (NOD.Cg-Prkdcscid Il2rgtm1Wj1/SzJ) from The Jackson Laboratory (strain code 05557) were used. This strain lacks effector cells and eliminates the ADCC mechanism for all antibodies. AB095, an antibody that targets tetanus toxoid, was run as control. Dosing of test ADCs was normalized such that equal masses of the PBD component were delivered.
# as §1, with “toxoid” for “toxoid,”, “SN38” for “PBD”
# The combination of Hu34C3-MMAE E2 plus carfilzomib inhibited tumor growth (TGImax 43% (FIG. 26A) and TGImax 59% (FIG. 26B)) at similar levels to Hu34C3-MMAE E2 alone.
# Efficacy of Hu34C3-MMAE E2 in combination with pomalidomide ((also known as 4-Amino-2-(2,6-dioxopiperidin-3-yl)isoindole-1,3-dione; marketed under the tradename POMALYST by Celgene Corporation, Summit, N.J. 07901) and/or dexamethasone ((also known as 8S,9R,10S,11S,13S,14S,16R,17R)-9-fluoro-11,17-dihydroxy-17-(2-hydroxyacetyl)-10,13,16-trimethyl-6,7,8,9,10,11,12,13,14,15,16,17-dodecahydro-3H-cyclopenta[a]phenanthren-3-one) was determined in subcutaneous xenografts of OPM-2 cells (van Rhee et al., 2009 Mol. Cancer Therapeutics 8: 2616-24). Effector-cell-negative mice were used (NSG strain) in this experiment. Vehicle (PBS/DMSO) was run as a control. ADCs were dosed at 3 or 6 mg/kg i.p.; pomalidomide was dosed at 20 mg/kg i.p. and dexamethasone was dosed at 10 mg/kg i.p.
# Efficacy of Hu34C3-MMAE E2 was determined in subcutaneous xenografts of OPM-2 cells (van Rhee et al., 2009 Mol. Cancer Therapeutics 8: 2616-24). These xenografts were treated with bortezomib twice a week for two weeks. […] These tumors were re-randomized and either continued with bortezomib treatment or were switched to lenalidomide plus dexamethasone, pomalidomide, Hu34C3-MMAE E2, or Hu34C3-MMAE E2 plus pomalidomide treatments.
# HuCS1 = molecular target: T1, HuCS1 (Homo sapiens, UniProt Q9NQ25); assay: Flow-cytometry competition assay with AF488-labeled Luc34.3.8 on L-363 cells; format: binding; settings: 20 μg/mL test antibody, 2 μg/mL labeled Luc34.3.8
# T1 construct: L-363 cells (human multiple myeloma cell line) expressing HuCS1; endogenous in cells; host or cells: L-363 human multiple myeloma cell line
# T1 sequence (Q9NQ25 23-335): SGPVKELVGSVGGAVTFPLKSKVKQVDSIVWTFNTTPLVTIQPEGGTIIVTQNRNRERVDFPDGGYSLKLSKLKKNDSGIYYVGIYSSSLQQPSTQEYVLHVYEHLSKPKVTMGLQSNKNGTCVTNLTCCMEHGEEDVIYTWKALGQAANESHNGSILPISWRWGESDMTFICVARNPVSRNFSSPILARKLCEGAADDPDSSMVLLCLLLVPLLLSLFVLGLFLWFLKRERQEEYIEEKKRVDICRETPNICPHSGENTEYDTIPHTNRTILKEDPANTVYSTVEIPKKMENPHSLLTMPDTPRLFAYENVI
# Method: A similar experiment was conducted with AF488-labeled Luc34.3.8 at 2 μg/mL. L-363 cells (human multiple myeloma cell line) expressing HuCS1 (300,000 cells per data point) was incubated for 30 min (on ice) with a tenfold excess of unlabeled test antibody (20 μg/mL). After the incubation, 2 μg/mL of AF488-labeled Luc34.3.8 was added to the cells and incubated on ice for 30 minutes. After this incubation, the cells were washed with PBS+1% FBS, and binding of AF488-labeled […] determined by flow cytometry.
# human CS1 [1] = molecular target: T2, human CS1 (Homo sapiens, UniProt Q9NQ25); assay: Flow-cytometry competition assay with AF488-labeled Hu34C3; format: binding; settings: 293s cells transfected with human CS1; 100 μg/mL test antibody, 10 μg/mL labeled Hu34C3
# T2 construct: expressed in transfected cells; host or cells: 293s cells
# T2 sequence (Q9NQ25 23-335): as above
# Method: For the competition assays, transfected 293s cells (300,000 cells per data point) were incubated for 30 min (on ice) with a tenfold excess of unlabeled test antibody (100 μg/mL).
# human CS1 [2] = molecular target: T2, human CS1; assay: Flow-cytometry competition assay with AF488-labeled elotuzumab; format: binding; settings: 293s cells transfected with human CS1; 100 μg/mL test antibody, 10 μg/mL labeled elotuzumab
# Method: A similar experiment was conducted with AF488-labeled elotuzumab at 10 μg/mL. Transfected 293s cells (300,000 cells per data point) were incubated for 30 min (on ice) with a tenfold excess of unlabeled antibody (100 μg/mL). After the incubation, 10 μg/mL of AF488-labeled elotuzumab was added to the cells and incubated on ice for 30 minutes. After this incubation, the cells were washed with PBS+1% FBS and binding of AF488-labeled elotuzumab determined by flow cytometry.
# human CS1 [3] = molecular target: T2, human CS1; assay: Flow-cytometry competition assay with AF488-labeled PDL241 (humanized antibodies, Example 5); format: binding; settings: 293s cells transfected with human CS1; 50 μg/mL test antibody, 5 μg/mL labeled PDL241
# Method: 293s cells transfected with human CS1 were incubated at various concentrations with an AF488 labeled PDL241 antibody. […] Transfected 293s cells (300,000 cells per data point) were incubated for 30 min (on ice) with a tenfold excess of unlabeled test antibody (50 μg/mL). After the incubation, 5 μg/mL of AF488-labeled PDL241 was added to the cells and incubated on ice for 30 minutes. After this incubation, the cells were washed with PBS+1% FBS and binding of AF488-labeled PDL241 was determine by flow cytometry.
# [4] = tested on: L-363 human multiple myeloma cells; assay: In vitro proliferation assay (CellTiter-Blue), L-363 cells; format: cell-based; settings: four days
# Method: All antibodies were conjugated to each of monomethyl auristatin E (“MMAE”; auristatin microtubule inhibitor), monomethyl auristatin F (“MMAF”; auristatin microtubule inhibitor) and duocarmycin (DNA damaging drug) using previously described methods (Doronina et al., 2003, Nat Biotechnology 21(7):778-784; Polson et al., 2007, Blood 1102:616-623). Drug loading for each ADC was similar. 10,000-20,000 cells (L-363 human multiple myeloma cells) expressing HuCS1 were plated into 96-well plates, and different amounts of ADCs added to the cells. Four days post addition of ADC, cell viability was measured using the CellTiter-Blue® Cell Viability Assay (Promega), and IC50 values were calculated.
# human CS1 [5] = molecular target: T2, human CS1; assay: Flow-cytometry competition assay with AF488-labeled PDL241 (murine antibodies, Example 2); format: binding; settings: 293s cells transfected with human CS1; 60 μg/mL unlabeled test antibody, 6 μg/mL labeled PDL241; less than 20% inhibition = does not compete
# Method: 293s cells transfected with human CS1 (300,000 cells per data point) were incubated at various concentrations with an AF488-labeled PDL241 antibody. The concentration at which 80% of maximal binding occurred was identified (6 μg/mL) and used for the subsequent competition assays.
# For the competition assays, transfected 293s cells (300,000 cells per data point) were incubated for 30 min (on ice) with a tenfold excess of unlabeled test antibody (60 μg/mL). After the incubation, 6 μg/mL of AF488-labeled PDL241 was added to the cells and incubated on ice for 30 minutes. After this incubation, the cells were washed with PBS+1% FBS, and binding of AF488-labeled PDL241 was determine by flow cytometry.
# [6] = Example 29, low-dose Hu34C3-MMAE E2 3 mg/kg i.p., pomalidomide 20 mg/kg i.p., dexamethasone 10 mg/kg i.p.
# [7] = antibody conjugated to MMAF, read-out: IC50, MMAF ADC
# [8] = antibody conjugated to duocarmycin, read-out: IC50, Duo ADC
# [9] = antibody conjugated to MMAE, read-out: IC50, MMAE ADC
Molecule,"IC50 [4, 7]","IC50 [4, 8]",Competition with AF488-labeled PDL241 for binding (human CS1 [5]),"IC50 [4, 9]",other results
"CC(C)C[C@H](NC(=O)[C@H](Cc1ccccc1)NC(=O)c1cnccn1)B(O)O [bortezomib, [(1R)-3-methyl-1-[[(2S)-1-oxo-3-phenyl-2-[(pyrazinylcarbonyl)amino]propyl]amino]butyl]boronic acid]",–,–,–,–,"TGImax (OPM-2 xenografts; Example 27, Hu34C3-MMAE E2 3 mg/kg, bortezomib 1 mg/kg): 58%; TGImax at end of two week treatment (OPM-2 xenografts; Example 31, bortezomib twice a week for two weeks): 66%"
"CC(C)C[C@H](NC(=O)[C@H](CCc1ccccc1)NC(=O)CN1CCOCC1)C(=O)N[C@@H](Cc1ccccc1)C(=O)N[C@@H](CC(C)C)C(=O)[C@@]1(C)CO1 [carfilzomib, (S)-4-Methyl-N-((S)-1-(((S)-4-methyl-1-((R)-2-methyloxiran-2-yl)-1-oxopentan-2-yl)amino)-1-oxo-3-phenylpropan-2-yl)-2-((S)-2-(2-morpholinoacetamido)-4-phenylbutanamido)pentanamide]",–,–,–,–,"TGImax (OPM-2 xenografts; Example 28, single agents, carfilzomib at 1.5 and 3 mg/kg): < 10%"
C[C@@H]1C[C@H]2[C@@H]3CCC4=CC(=O)C=C[C@]4(C)[C@@]3(F)[C@@H](O)C[C@]2(C)[C@@]1(O)C(=O)CO [dexamethasone],–,–,–,–,TGImax (OPM-2 xenografts; [6]): 25%
"Nc1cccc2c1C(=O)N(C1CCC(=O)NC1=O)C2=O (stereo not drawn) [pomalidomide, 4-Amino-2-(2,6-dioxopiperidin-3-yl)isoindole-1,3-dione]",–,–,–,–,TGImax (OPM-2 xenografts; [6]): 34%
B1,–,–,–,–,"Competition with AF488-labeled Luc34.3.8 for binding (HuCS1): do not compete with, and bind different epitopes than, Luc34.3.8; Competition with AF488-labeled Hu34C3 for binding (human CS1 [1]): None of the anti-CS1 antibodies tested (including Hu27A12 and Hu31D2) compete with Hu34C3; Competition with AF488-labeled elotuzumab for binding (human CS1 [2]): do not compete with, and bind different epitopes than, elotuzumab; Competition with AF488-labeled PDL241 for binding (human CS1 [3]): do not compete with, and bind different epitopes than, PDL241"
B2,0.15 nM,0.2 nM,do not compete with PDL241,–,–
B3,0.11 nM,0.19 nM,do not compete with PDL241,3.5 nM,–
B4,0.12 nM,0.2 nM,do not compete with PDL241,3.5 nM,–
B5,0.25 nM,0.31 nM,do not compete with PDL241,–,–
B6,0.08 nM,0.25 nM,do not compete with PDL241,1.3 nM,–
